# Experimental data: the supplement of paper PMC7125110
# ± gives the standard error. Variants at the floor of the assay were thinned out.
# B1: glmS ribozyme (parent)
# chain: AUAAAAGCGCCAGAACUACAGAAAUGUAGUUGACGAGGAGGAGGUUUAUCGAAUUUUCGGCGGAUGCCUCCAAA
# Variants of: B1
# Test: self-cleavage kobs at 10000 uM GlcN6P; higher = faster cleavage; RNA array
# Settings: with glucosamine-6-phosphate
# Summary of the method: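 Weighted Michaelis–Menten fits across concentrations supplied kcat and KM, based on kobs from one- or two-exponential decay fits to normalised per-tile medians. The data came from barcoded ribozyme variants transcribed in situ by E. coli RNA polymerase on sequenced MiSeq chips and tracked at 37 °C by a hybridised Cy3 probe. Glucosamine-6-phosphate (40 μM to 10 mM) in HEPES/KCl/Mg(OAc)2 buffer was flowed in.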
row,Variant,self-cleavage kobs at 10000 uM GlcN6P [s⁻¹]
1,A52U C58G U65G,< 1e-05
2,C16U U54A C70G,0.000121 ± 2.5e-05
3,U30C G32C U47G C50G A53U A64G C68A C70A,0.000334 ± 8.3e-05
4,U54G G66U C68U,0.000154 ± 3.1e-05
5,A12G G51C G60U,< 1e-05
6,G40A C58U C67G C71G,< 1e-05
7,G37A C50G,< 1e-05
8,C16A G29C A39C,0.000349 ± 6.1e-05
9,G29A G66U C68U,3.63e-05 ± 1.6e-05
10,G40U U47C G51A G59U C71U,< 1e-05
11,A48C C61G C70G,< 1e-05
12,G41U A53G C68U,4.96e-05 ± 1.3e-05
13,G40A A53G C71G,0.00453 ± 0.001
14,C16U A53G U69G,6.58e-05 ± 1.9e-05
15,G29C A52U A53C C68G,< 1e-05
16,A12U G13U U31C G40A G44A U56A,< 1e-05
17,A14G A15U G32A,0.00264 ± 0.00069
18,A12G G13U U56G C61U C68G C70A,4.15e-05 ± 1.7e-05
19,A12U U31C C67G,0.000267 ± 5.5e-05
20,G26U A53C,0.00559 ± 0.0013
21,G29U C34A G59A U65C,< 1e-05
22,U17A A18C C19A A20G A52G U57G C67A,8.22e-05 ± 1.7e-05
23,A15G U31A A36G C58U,< 1e-05
24,A33C G62C C70U,< 1e-05
25,U54G C58A C71U,0.000213 ± 4.7e-05
26,A15G G43A C58A,< 1e-05

row,Variant,self-cleavage kobs at 10000 uM GlcN6P [s⁻¹]
1,A33C G37U,< 1e-05
2,G37A A42C,2.95e-05 ± 8.6e-06
3,A36C G43U U56C U57A C67G,< 1e-05
4,G29U U31G G32C C67A C68G,5.79e-05 ± 2.8e-05
5,A39G U46G,0.018 ± 0.0054
6,G44C U45A U46G,3.99e-05 ± 2e-05
7,G43U G59C C68A,< 1e-05
8,G35C A39U G41C C61A,< 1e-05
9,C16U A33G A39U,< 1e-05
10,A12U G29C G41A,0.000129 ± 4.9e-05
11,U47A A53G U55A G66C,0.000375 ± 5.9e-05
12,A42U U56C C71U,5.21e-05 ± 2e-05
13,G29C G40A A42G,8.98e-05 ± 2.9e-05
14,A12U G13U G29C,3.79e-05 ± 1.5e-05
15,U57C G62U,< 1e-05
16,U49C C68A,< 1e-05
17,U30C G32A C70G,7.6e-05 ± 1.7e-05
18,G13U C50G C70U,5.49e-05 ± 1.2e-05
19,A39C G44C G60U,< 1e-05
20,G40U G43C U65A,< 1e-05
21,G40A U45A G66A,0.00649 ± 0.0018
22,A15G U56G C68G,6.13e-05 ± 1.3e-05
23,A36U G40A G63U,< 1e-05
24,G26U U30G C71U,0.000403 ± 6.4e-05
25,A12U A15G U46G,0.00932 ± 0.0019
26,C34U G37U U46C U47A G62A,< 1e-05

row,Variant,self-cleavage kobs at 10000 uM GlcN6P [s⁻¹]
1,A14U G37C A64C,< 1e-05
2,A15G G60A,3.03e-05 ± 1.1e-05
3,G29C A36C,< 1e-05
4,A42G C58U,9.52e-05 ± 1.4e-05
5,A14U A42G C58A,0.000409 ± 0.00014
6,A14C G38U G63U C68A,4.08e-05 ± 1.9e-05
7,A15G C16U G29C,0.00377 ± 0.00075
8,A39G U56G C68U,0.00322 ± 0.0012
9,G13A U57G,4.69e-05 ± 8.8e-06
10,A36C U69A C70U,6.82e-05 ± 1.5e-05
11,A14U A42G C61G,< 1e-05
12,A42C C61U C68U,< 1e-05
13,A36C G38U U47C G51C,< 1e-05
14,G37A G41U G59C G66U,< 1e-05
15,G43C C58G C71A,< 1e-05
16,A33G C58U C67U,< 1e-05
17,A39U C67G C71A,7.84e-05 ± 1.5e-05
18,A12U G37C U45A A48U C68U,< 1e-05
19,G44A U56A G60C C68A,< 1e-05
20,G35C A42C C70U,< 1e-05
21,G13U C61G C68G,< 1e-05
22,A20U G32C,7.58e-05 ± 2.1e-05
23,A15G G41A U54A,9.17e-05 ± 2.8e-05
24,A14C A33U A36U G60U G62C,< 1e-05
25,U27G A42U,0.000136 ± 3e-05
26,A39G A52C,2.99e-05 ± 1.2e-05

row,Variant,self-cleavage kobs at 10000 uM GlcN6P [s⁻¹]
1,A15U A42U C67A,0.000127 ± 3.2e-05
2,U30C G41A U54C,< 1e-05
3,A39G C58G C67U,3.44e-05 ± 1.2e-05
4,C19A G35C U47C U49G G51U C68U C71U,< 1e-05
5,A14U A15G G41U,0.000237 ± 5.3e-05
6,G13U G44C U56C,< 1e-05
7,G37A G38A A42C G59U,< 1e-05
8,A36U G37C C50U U57A U69G,4.81e-05 ± 2.3e-05
9,G32A U57C G62A C67G,< 1e-05
10,G13A A15U A53G G60U,< 1e-05
11,G29U G32A A39U,0.00055 ± 8.7e-05
12,U56G C58U C67A,3.62e-05 ± 1.5e-05
13,G13C G38U A48U C50A,< 1e-05
14,A48U C67G,4.58e-05 ± 8.4e-06
15,G29U G38C G44A U47C,< 1e-05
16,U45G U55C G60A G63U,< 1e-05
17,G40A G51C C67U,< 1e-05
18,U56C U57G G59U,< 1e-05
19,G37C U46A G60U,< 1e-05
20,G29A G32U A52G,3.76e-05 ± 1.7e-05
21,A14C A52U A53C,< 1e-05
22,A42G G59U,4.33e-05 ± 9.8e-06
23,G35C C67U,0.00429
